Experimental data as given in patent publication US6160106.

Molecular target: Fas/APO-1 (human) (UniProt P25445)

Question: With “agonistic anti-APO-1 monoclonal antibody” as the substance, how does the cell death of HeLa cells (rounding up and detachment, neutral red dye uptake) read?
Answer: Its cell death of HeLa cells (rounding up and detachment, neutral red dye uptake) is 70%.
